Reference: patent publication US20250346646A1, “COMPOUNDS USEFUL TO TREAT METABOLIC DISORDERS” (President and Fellows of Harvard College, priority 2016, published 2025)

Tests used:
[1] = test system: diet induced obese (DIO) mice; assay: Antibody treatment of obese mice on high-fat diet (fasting glucose, GTT, ITT); assay type: in vivo, mouse; conditions: obese mice on HFD
Procedure: FIG. 9B is bar graph showing blood glucose levels (mg/dL) at week 0 (open bars) or week 4 (solid bars) in obese mice on a high-fat diet (HFD) treated with vehicle or anti-aP2 monoclonal antibodies CA33, CA13, CA15, CA23, or H3. Blood glucose levels were measured after 6 hours of day-time food withdrawal. *p<0.05, **p<0.01.
The test was performed after 2 weeks of treatment in obese mice on HFD with vehicle (diamonds) or anti-aP2 monoclonal antibodies (0.75 g/kg glucose)(CA33; squares)(CA15; triangles). *p<0.05.
FIG. 12A is a line graph showing glucose levels (mg/dL) vs. time (minutes) in a glucose tolerance test (GTT) following two weeks of selective antibody treatment using high affinity antibodies (CA13, CA15, CA23, and H3) versus vehicle control in high fat diet fed mice.
FIG. 12B is a line graph showing glucose levels (mg/dl) vs. time (minutes) in an insulin tolerance test (ITT) following three weeks of selective antibody treatment using high affinity antibodies (CA13, CA15, CA23, and H3) versus vehicle control in high fat diet fed mice.
Animal care and experimental procedures were performed with approval from animal care committees of Harvard University. Male mice (leptin-deficient (ob/ob) and diet induced obese (DIO) mice with C57BL/6J background) were purchased from The Jackson Laboratory (Bar Harbor, ME) and kept on a 12-hour light/dark cycle. […] Body weights were measured weekly in the fed state. Blood glucose levels were measured weekly after 6 hours of food withdrawal or after 16 hours overnight fast. […]
Twenty-four hours post transfection a bolus feed was added and the temperature was reduced to 32° C. and maintained for the duration of the culture period (12-14 days). […] The UV absorbance peak at A280 nm was collected during elution from the column using 0.1M sodium citrate pH 3.4 elution buffer and then neutralized to pH 7.4 by addition of 2M Tris-HCl pH 8.5. […]

aP2 = aP2 (Homo sapiens, UniProt P15090); assay: Paranaric acid (lipid) binding to aP2; conditions: vs IgG control antibody, over pH
Sequence of aP2 (P15090 whole entry): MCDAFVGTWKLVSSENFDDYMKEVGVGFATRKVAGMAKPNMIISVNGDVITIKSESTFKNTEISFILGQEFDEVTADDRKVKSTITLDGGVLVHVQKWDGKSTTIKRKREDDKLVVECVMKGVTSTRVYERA
Procedure: FIG. 10F is a line graph showing paranaric acid binding to aP2 (relative fluorescence) vs. pH in the presence of IgG control antibody (circles) or CA33 antibody (squares).
In further analysis, epitope identification based on hydrogen-deuterium exchange mass spectrometry experiments, for example, as described by Pandit et al. (2012) J. Mol. Recognit. […] Co-crystallization of the Fab fragments of CA33 and H3 with aP2 (FIG. 10D) was then conducted. […] Despite the partial blocking of H3 by CA33, we observed that there is in fact no direct overlap of their epitopes. Instead, the significant movement of the region around aP2 Phe58 may partially block binding of one antibody by the other in the competition experiments. In addition, the low affinity of the CA33 Fab can be explained by the crystal structure. Unusually, only one amino acid in the heavy chain of CA33 makes a contact with aP2, and the majority of the contacts are through the light chain (FIGS. 10D and 10E). In contrast, H3-aP2 contact is more conventional, with both Fab chains interacting with aP2. […] H3 does bind directly to the ‘lid’ but has limited activity. Binding of CA33 to lipid-bound aP2 or lipid-free aP2 was also examined using biochemical analysis (Biacore). CA33 binds to both lipid-bound aP2 and lipid-free aP2 with the following affinities: […]

- Effect on lipid (paranaric acid) binding to aP2 (aP2): not substantially altered
B1: CA33: low-affinity anti-aP2 monoclonal antibody, rabbit-mouse hybrid, produced and purified by UCB; VL Seq. ID 28, VH Seq. ID 41 (antibody, V domains shown)
VH: QSVEESGGRLVTPGTPLTLTCTVSGFSLSTYYMSWVRQAPGKGLEWIGIIYPSGSTYCASWAKGRFTISKASTTVDLKITSPTTEDTATYFCARPDNDGTSGYLSGFGLWGQGTLVTVSS
VL: DVVMTQTPASVSEPVGGTVTIKCQASEDISRYLVWYQQKPGQPPKRLIYKASTLASGVPSRFKGSGSGTDFTLTISDLECDDAATYYCQCTYGTYAGSFFYSFGGGTEVVVE
modifications: Rabbit Ab 909 VH region; Rabbit Ab 909 VL-region
- Fasting blood glucose ([1]; 33 mg/kg s.c. twice weekly, week 4 vs week 0, 6 hours food withdrawal): significantly decreased
- Glucose tolerance (GTT) ([1]; after 2 weeks of treatment, 0.75 g/kg glucose): significantly improved glucose tolerance
- Insulin sensitivity (insulin tolerance test) ([1]; after 3 weeks of treatment): markedly improved insulin sensitivity
